According to the supplement of paper PMC10724198:
± gives the standard deviation of the averaged measurements.

Tests used:
[1] = tested on: Saccharomyces cerevisiae; experiment: protein stability index of tFT-peptide fusion (C-terminal peptide) (PSI (0-1 scale)); higher = more stable (slower turnover); conditions: genetic background: wild type; temperature: 30 C
[2] = tested on: Saccharomyces cerevisiae; experiment: as above
Procedure: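 MPS profiling in S. cerevisiae of the tFT-X12 degron library: putative degron peptides plus stable controls, 12 aa, fused to the C-terminus of a sfGFP-mCherry timer. Cells are FACS-sorted into 8 mCherry/sfGFP bins and deep-sequenced. PSI runs from 0 (unstable) to 1 (stable). Backgrounds are wild type, das1Δ and doa10Δ at 30 °C, and wild type, das1Δ, cdc34-1 and cdc53-1 at 37 °C; 2-3 technical replicates each.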

[3] = genetic background: cdc34-1, temperature: 37 C
[4] = genetic background: cdc53-1, temperature: 37 C
[5] = genetic background: das1 deletion, temperature: 30 C
[6] = genetic background: das1 deletion, temperature: 37 C
[7] = genetic background: doa10 deletion, temperature: 30 C
[8] = genetic background: wild type, temperature: 30 C
[9] = genetic background: wild type, temperature: 37 C
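Note: PSI is a weighted mean of sequencing reads over stability bins, variants kept only with over 10 reads, mCherry proximal and sfGFP distal, peptide attached via GGGS linker.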

Sequence	protein stability index [1]	protein stability index [2, 3]	protein stability index [2, 4]	protein stability index [2, 5]	protein stability index [2, 6]	protein stability index [2, 7]	protein stability index [2, 8]	protein stability index [2, 9]
TSPYTSFAHTSL	0.69 ± 0.022	0.694 ± 0.029	0.739 ± 0.016	0.677 ± 0.031	0.739 ± 0.0074	0.662 ± 0.017	0.6569 ± 0.006	0.71286 ± 0.00012
VAFGVASGWCWF	0.488 ± 0.02	0.748 ± 0.048	0.8066 ± 0.0046	0.687 ± 0.016	0.848 ± 0.0032	0.373 ± 0.0093	0.397 ± 0.015	0.6902 ± 0.0057
VAFILVVCKGIG	0.2024 ± 0.00042	0.187 ± 0.029	0.2776 ± 0.0022	0.175 ± 0.016	0.327 ± 0.0048	0.122 ± 0.015	0.152 ± 0.013	0.287 ± 0.0077
VAWWVCIRSCCG	0.486 ± 0.028	0.51 ± 0.023	0.55 ± 0.057	0.427 ± 0.027	0.577 ± 0.012	0.353 ± 0.012	0.395 ± 0.015	0.53 ± 0.0066
VCCSSVSLLVFA	0.374 ± 0.023	0.362 ± 0.017	0.363 ± 0.01	0.267 ± 0.028	0.44 ± 0.0076	0.225 ± 0.0042	0.256 ± 0.033	0.419 ± 0.01
VCGYGFAVPCYT	0.437 ± 0.02	0.489 ± 0.013	0.549 ± 0.021	0.37 ± 0.026	0.5832 ± 0.0026	0.327 ± 0.012	0.372 ± 0.012	0.535 ± 0.0076
VCILLVAWCLMG	0.217 ± 0.0097	0.168 ± 0.023	0.289 ± 0.049	0.24 ± 0.022	0.384 ± 0.0058	0.108 ± 0.02	0.124 ± 0.02	0.1546 ± 0.00053
VCLLGWGVRLVS	0.505 ± 0.079	0.667 ± 0.031	0.7294 ± 0.0045	0.609 ± 0.038	0.72374 ± 7.5e-05	0.321 ± 0.0052	0.371 ± 0.023	0.576 ± 0.01
VCMHIVLLAASP	0.193 ± 0.002	0.244 ± 0.02	0.317 ± 0.017	0.187 ± 0.0068	0.284 ± 0.014	0.201 ± 0.028	0.202 ± 0.021	0.263 ± 0.011
VCSRWFFVFVVR	0.388 ± 0.011	0.402 ± 0.033	0.424 ± 0.043	0.331 ± 0.035	0.523 ± 0.014	0.409 ± 0.014	0.291 ± 0.051	0.4917 ± 0.0013
VCVFFRLCIVWY	0.174 ± 0.036	0.061 ± 0.0092	0.101 ± 0.0031	0.127 ± 0.017	0.171 ± 0.0065	0.115 ± 0.013	0.103 ± 0.021	0.145 ± 0.012
VDGVSFFVVLLC	0.311 ± 0.036	0.406 ± 0.087	0.503 ± 0.0085	0.343 ± 0.029	0.537 ± 0.0077	0.189 ± 0.0091	0.198 ± 0.026	0.427 ± 0.0064
VDSTCLLITLLA	0.41 ± 0.0047	0.534 ± 0.1	0.4893 ± 0.0016	0.348 ± 0.036	0.506 ± 0.0053	0.245 ± 0.0068	0.296 ± 0.023	0.456 ± 0.02
VEIKSKRMLVVI	0.45639 ± 0.00022	0.5115 ± 0.0011	0.538 ± 0.039	0.426 ± 0.028	0.578 ± 0.0069	0.287 ± 0.013	0.322 ± 0.04	0.4749 ± 0.0012
VEQLLYIKATNV	0.408 ± 0.019	0.689 ± 0.012	0.7025 ± 0.0067	0.6088 ± 0.0057	0.7288 ± 0.0038	0.238 ± 0.029	0.29 ± 0.036	0.5062 ± 0.0015
VFDFVFHLRFVV	0.1155 ± 0.00063	0.336 ± 0.032	0.419 ± 0.0096	0.427 ± 0.028	0.468 ± 0.0082	0.091 ± 0.019	0.0905 ± 0.025	0.117 ± 0.011
VFFCLFVLFLSG	0.423 ± 0.18	0.302 ± 0.0038	0.397 ± 0.0068	0.264 ± 0.043	0.437 ± 0.0073	0.251 ± 0.0072	0.282 ± 0.015	0.408 ± 0.021
VFFGLYLVTFTS	0.409 ± 0.042	0.219 ± 0.036	0.302 ± 0.045	0.222 ± 0.026	0.379 ± 0.013	0.196 ± 0.015	0.202 ± 0.025	0.3575 ± 0.0028
VFFHFFVCWRFV	0.121 ± 0.019	0.184 ± 0.068	0.231 ± 0.013	0.25 ± 0.032	0.3646 ± 0.00069	0.0556 ± 0.014	0.0548 ± 0.018	0.0857 ± 0.0019
